This passage reports protein stability index results from the supplement of paper PMC10567573.

B1: PDS5B (parent)
chain: IYKKYALQSAAGKDAAKQIAWIKD
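Further: lentivirally expressed fusions sorted by FACS into six bins by GFP to DsRed ratio, PSI derived from sequencing read proportions per bin multiplied by bin number.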

Variants of B1 are the subject of the series. Put plainly: protein stability index of a GFP-peptide fusion (GPS, HEK-293T) (PSI 1-6); higher = more stable. The settings on record: c terminus: a fixed tail appended.
Consider IYKKYALQSAAGKDAAKQIAWLKD [I22L], for which the protein stability index came to 2.33.
The result for IYKKYALQSAAGKDAAKQIAWRKD [I22R] reads 3.43.
The result for IYKKYALQSAAGKDAAKQIAWSKD [I22S] reads 3.09.
The result for IYKKYALQEAAGKDAAKQIAWIKD [S9E] reads 2.73; that for IYKKYALQSAAGKDALKQIAWIKD [A16L], 2.09.
